The source of these data is publication PMC2887293 (Protein expression and purification, 2010).

Where no end group is shown, it is not given here. fluorescein = fluorescein label attached at the C-terminus

One assay has as its target … peptide. The note with it: cited from earlier work.
Assay [1] has as its target human N-His6-mortalin (Δ1-51) (human, UniProt P38646 52-679). In words: fluorescence polarisation. For orientation: In fluorescence polarisation assays a small probe gives low polarisation when free and higher when bound to something large.

Chain of Ssq1 (Q05931 2-657): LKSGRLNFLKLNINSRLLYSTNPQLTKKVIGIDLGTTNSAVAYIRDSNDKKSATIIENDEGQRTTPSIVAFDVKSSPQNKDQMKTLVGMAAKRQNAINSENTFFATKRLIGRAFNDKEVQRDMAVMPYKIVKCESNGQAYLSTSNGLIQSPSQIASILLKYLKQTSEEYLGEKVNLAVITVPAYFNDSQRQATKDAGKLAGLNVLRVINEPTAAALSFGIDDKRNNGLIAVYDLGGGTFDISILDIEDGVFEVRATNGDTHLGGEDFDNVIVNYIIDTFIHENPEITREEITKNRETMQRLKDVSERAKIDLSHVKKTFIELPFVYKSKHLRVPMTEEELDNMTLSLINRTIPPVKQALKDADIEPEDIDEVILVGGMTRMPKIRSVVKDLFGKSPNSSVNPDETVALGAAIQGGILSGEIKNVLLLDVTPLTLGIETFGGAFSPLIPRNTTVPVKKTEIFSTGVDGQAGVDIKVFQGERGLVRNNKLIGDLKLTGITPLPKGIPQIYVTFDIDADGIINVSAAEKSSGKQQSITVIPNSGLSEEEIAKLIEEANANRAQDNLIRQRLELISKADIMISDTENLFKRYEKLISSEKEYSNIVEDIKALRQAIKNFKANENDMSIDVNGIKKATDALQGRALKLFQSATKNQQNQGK
Chain of human N-His6-mortalin (Δ1-51) (P38646 52-679, stated change not applied): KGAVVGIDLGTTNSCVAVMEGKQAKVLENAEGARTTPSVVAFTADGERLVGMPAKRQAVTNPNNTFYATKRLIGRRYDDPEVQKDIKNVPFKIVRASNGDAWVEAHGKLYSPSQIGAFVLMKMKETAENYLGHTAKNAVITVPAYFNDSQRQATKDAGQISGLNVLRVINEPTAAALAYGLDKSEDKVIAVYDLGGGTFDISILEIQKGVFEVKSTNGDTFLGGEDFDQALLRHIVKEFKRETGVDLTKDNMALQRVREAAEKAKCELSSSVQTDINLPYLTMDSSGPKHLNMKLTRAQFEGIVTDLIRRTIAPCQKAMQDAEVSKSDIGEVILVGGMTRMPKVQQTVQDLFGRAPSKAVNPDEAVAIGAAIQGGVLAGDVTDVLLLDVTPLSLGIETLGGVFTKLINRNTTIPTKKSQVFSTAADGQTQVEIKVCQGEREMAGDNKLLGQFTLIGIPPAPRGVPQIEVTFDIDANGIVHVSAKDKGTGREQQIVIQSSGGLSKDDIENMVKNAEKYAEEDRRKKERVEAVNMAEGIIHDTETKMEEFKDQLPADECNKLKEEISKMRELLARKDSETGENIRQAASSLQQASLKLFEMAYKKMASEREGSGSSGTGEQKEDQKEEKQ

With Ssq1 (from UniProt Q05931), the Kd in the assay with … peptide was 2800 nM.
For the molecule LSLPPVKLHK-fluorescein [LSLPPVKLHK-fluorescein], the Kd in assay [1] was 1200 ± 100 nM.

By Kd is commonly meant the concentration at which binding is half-saturated.
